Assays:
WT JR-FL gp120 (HIV-1) = test: ELISA, antigen-coated wells
[1] = target: HIV-1 Env of pseudovirus isolate MGRM-G-017 (HIV-1); test: cell-based or functional assay
[2] = target: HIV-1 APV6 Env (pseudovirus) (HIV-1); test: cell-based or functional assay
[3] = target: HIV-1 Env of isolate MGRM-C-025 (HIV-1); test: cell-based or functional assay
[4] = target: HIV-1 Env of isolate MGRM-C-002 (HIV-1); test: cell-based or functional assay
[5] = target: HIV-1 Env of isolate MGRM-C-009 (HIV-1); test: cell-based or functional assay
[6] = target: HIV-1 93IN905 Env (pseudovirus) (HIV-1); test: cell-based or functional assay
[7] = target: HIV-1 Env of isolate MGRM-C-024 (HIV-1); test: cell-based or functional assay
[8] = target: HIV-1 Env of isolate MGRM-C-023 (HIV-1); test: cell-based or functional assay
[9] = target: HIV-1 CMU02 Env (pseudovirus) (HIV-1); test: cell-based or functional assay
[10] = target: HIV-1 Env of pseudovirus isolate MGRM-G-016 (HIV-1); test: cell-based or functional assay
[11] = target: HIV-1 MGRM-C-027 Env (pseudovirus) (HIV-1); test: cell-based or functional assay
[12] = target: HIV-1 92RW020 Env (pseudovirus) (HIV-1); test: cell-based or functional assay
[13] = target: HIV-1 Env of isolate MGRM-C-005 (HIV-1); test: cell-based or functional assay
[14] = target: HIV-1 94UG103 Env (pseudovirus) (HIV-1); test: cell-based or functional assay
[15] = target: HIV-1 Env of isolate MGRM-C-020 (HIV-1); test: cell-based or functional assay
[16] = target: HIV-1 Env of isolate MGRM-C-017 (HIV-1); test: cell-based or functional assay
[17] = target: HIV-1 92UG005 Env (pseudovirus) (HIV-1); test: cell-based or functional assay
[18] = target: envelope of aMLV pseudovirus (negative control); test: cell-based or functional assay
[19] = target: HIV-1 Env of isolate MGRM-C-004 (HIV-1); test: cell-based or functional assay
[20] = target: HIV-1 MGRM-C-026 Env (pseudovirus) (HIV-1); test: cell-based or functional assay
[21] = target: HIV-1 Env of isolate MGRM-C-015 (HIV-1); test: cell-based or functional assay
[22] = target: HIV-1 Env of pseudovirus isolate MGRM-G-011 (HIV-1); test: cell-based or functional assay
[23] = target: HIV-1 Env of pseudovirus isolate MGRM-G-013 (HIV-1); test: cell-based or functional assay
[24] = target: HIV-1 MGRM-C-028 Env (pseudovirus) (HIV-1); test: cell-based or functional assay
[25] = target: HIV-1 Env of isolate MGRM-C-019 (HIV-1); test: cell-based or functional assay
[26] = target: HIV-1 Env of pseudovirus isolate MGRM-G-004 (HIV-1); test: cell-based or functional assay
[27] = target: HIV-1 Env of pseudovirus isolate MGRM-G-009 (HIV-1); test: cell-based or functional assay
[28] = target: HIV-1 Env of isolate MGRM-C-001 (HIV-1); test: cell-based or functional assay
[29] = target: HIV-1 Env of pseudovirus isolate MGRM-G-015 (HIV-1); test: cell-based or functional assay
[30] = target: HIV-1 Env of isolate MGRM-C-007 (HIV-1); test: cell-based or functional assay
[31] = target: HIV-1 NL43 Env (pseudovirus) (HIV-1); test: cell-based or functional assay
[32] = target: HIV-1 Env of isolate MGRM-C-006 (HIV-1); test: cell-based or functional assay
[33] = target: HIV-1 92UG024 Env (pseudovirus) (HIV-1); test: cell-based or functional assay
[34] = target: HIV-1 JRCSF Env (pseudovirus) (HIV-1) (UniProt P20871); test: cell-based or functional assay
[35] = target: HIV-1 Env of pseudovirus isolate MGRM-G-014 (HIV-1); test: cell-based or functional assay
[36] = target: HIV-1 Env of isolate MGRM-C-012 (HIV-1); test: cell-based or functional assay
[37] = target: HIV-1 Env of pseudovirus isolate MGRM-G-027 (HIV-1); test: cell-based or functional assay
[38] = target: HIV-1 MGRM-D-018 Env (pseudovirus) (HIV-1); test: cell-based or functional assay
[39] = target: HIV-1 Env of pseudovirus isolate MGRM-G-001 (HIV-1); test: cell-based or functional assay
[40] = target: HIV-1 92TH021 Env (pseudovirus) (HIV-1); test: cell-based or functional assay
[41] = target: HIV-1 Env of isolate MGRM-C-014 (HIV-1); test: cell-based or functional assay
[42] = target: HIV-1 MGRM-A-010 Env (pseudovirus) (HIV-1); test: cell-based or functional assay
[43] = target: HIV-1 Env of isolate MGRM-C-008 (HIV-1); test: cell-based or functional assay
[44] = target: HIV-1 Env of pseudovirus isolate MGRM-G-019 (HIV-1); test: cell-based or functional assay
[45] = target: HIV-1 Env of isolate MGRM-C-010 (HIV-1); test: cell-based or functional assay
[46] = target: HIV-1 Env of pseudovirus isolate MGRM-G-006 (HIV-1); test: cell-based or functional assay
[47] = target: HIV-1 Env of isolate MGRM-C-022 (HIV-1); test: cell-based or functional assay
[48] = target: HIV-1 Env of isolate MGRM-C-013 (HIV-1); test: cell-based or functional assay

**Q.** How did the EC50 (WT JR-FL gp120 (HIV-1)) turn out when 5141_B17 (PGT-126) (antibody) was run?
**A.** 0.1 µg/mL

**Q.** And the IC50 (µg/mL), pseudovirus neutralization [1]?
**A.** > 50 µg/mL

**Q.** And the neutralization IC50 (pseudovirus) [2]?
**A.** 0.0249 µg/mL

**Q.** And the neutralization IC50 [3]?
**A.** 0.786 µg/mL

**Q.** What about the neutralization IC50 [4] of the same substance?
**A.** 0.011 µg/mL

**Q.** And the neutralization IC50 [5]?
**A.** > 50 µg/mL

**Q.** What about the neutralization IC50 (pseudovirus) [6] of the same substance?
**A.** 0.0194 µg/mL

**Q.** What about the neutralization IC50 [7] of the same substance?
**A.** > 50 µg/mL

**Q.** What about the neutralization IC50 [8] of the same substance?
**A.** 0.065 µg/mL

**Q.** And the neutralization IC50 (pseudovirus) [9]?
**A.** > 10 µg/mL

**Q.** What about the IC50 (µg/mL), pseudovirus neutralization [10] of the same substance?
**A.** > 50 µg/mL

**Q.** And the neutralization IC50 (pseudovirus) [11]?
**A.** 1.14 µg/mL

**Q.** And the neutralization IC50 (pseudovirus) [12]?
**A.** 0.0046 µg/mL

**Q.** What about the neutralization IC50 [13] of the same substance?
**A.** 0.298 µg/mL

**Q.** And the neutralization IC50 (pseudovirus) [14]?
**A.** 0.0091 µg/mL

**Q.** What about the neutralization IC50 [15] of the same substance?
**A.** > 50 µg/mL

**Q.** What about the neutralization IC50 [16] of the same substance?
**A.** 0.17 µg/mL

**Q.** What about the neutralization IC50 (pseudovirus) [17] of the same substance?
**A.** 0.0181 µg/mL

**Q.** What about the IC50 (µg/mL), pseudovirus neutralization [18] of the same substance?
**A.** > 50 µg/mL

**Q.** What about the neutralization IC50 [19] of the same substance?
**A.** 0.033 µg/mL

**Q.** What about the neutralization IC50 (pseudovirus) [20] of the same substance?
**A.** 0.0076 µg/mL

**Q.** And the neutralization IC50 [21]?
**A.** 3.14 µg/mL

**Q.** And the IC50 (µg/mL), pseudovirus neutralization [22]?
**A.** 7.32 µg/mL

**Q.** And the IC50 (µg/mL), pseudovirus neutralization [23]?
**A.** 48.8 µg/mL

**Q.** And the neutralization IC50 (pseudovirus) [24]?
**A.** 0.283 µg/mL

**Q.** And the neutralization IC50 [25]?
**A.** 0.006 µg/mL

**Q.** And the IC50 (µg/mL), pseudovirus neutralization [26]?
**A.** > 50 µg/mL

**Q.** What about the IC50 (µg/mL), pseudovirus neutralization [27] of the same substance?
**A.** > 50 µg/mL

**Q.** And the neutralization IC50 [28]?
**A.** > 50 µg/mL

**Q.** What about the IC50 (µg/mL), pseudovirus neutralization [29] of the same substance?
**A.** > 50 µg/mL

**Q.** What about the neutralization IC50 [30] of the same substance?
**A.** 25.3 µg/mL

**Q.** What about the neutralization IC50 (pseudovirus) [31] of the same substance?
**A.** > 10 µg/mL

**Q.** And the neutralization IC50 [32]?
**A.** 0.014 µg/mL

**Q.** What about the neutralization IC50 (pseudovirus) [33] of the same substance?
**A.** > 10 µg/mL

**Q.** And the neutralization IC50 (pseudovirus) [34]?
**A.** 0.0061 µg/mL

**Q.** And the IC50 (µg/mL), pseudovirus neutralization [35]?
**A.** 0.009 µg/mL

**Q.** What about the neutralization IC50 [36] of the same substance?
**A.** 0.111 µg/mL

**Q.** What about the IC50 (µg/mL), pseudovirus neutralization [37] of the same substance?
**A.** 0.875 µg/mL

**Q.** And the neutralization IC50 (pseudovirus) [38]?
**A.** 0.0093 µg/mL

**Q.** What about the IC50 (µg/mL), pseudovirus neutralization [39] of the same substance?
**A.** 0.038 µg/mL

**Q.** And the neutralization IC50 (pseudovirus) [40]?
**A.** 0.115 µg/mL

**Q.** What about the neutralization IC50 [41] of the same substance?
**A.** > 50 µg/mL

**Q.** And the neutralization IC50 (pseudovirus) [42]?
**A.** 0.0033 µg/mL

**Q.** What about the neutralization IC50 [43] of the same substance?
**A.** 2.12 µg/mL

**Q.** What about the IC50 (µg/mL), pseudovirus neutralization [44] of the same substance?
**A.** 0.018 µg/mL

**Q.** And the neutralization IC50 [45]?
**A.** > 50 µg/mL

**Q.** What about the IC50 (µg/mL), pseudovirus neutralization [46] of the same substance?
**A.** > 50 µg/mL

**Q.** And the neutralization IC50 [47]?
**A.** 0.96 µg/mL

**Q.** And the neutralization IC50 [48]?
**A.** > 50 µg/mL

**Q.** Which results are given for 4858_P08 (PGT-123) (antibody)?
**A.** EC50 (WT JR-FL gp120 (HIV-1)): 0.2 µg/mL; IC50 (µg/mL), pseudovirus neutralization [1]: 0.026 µg/mL; neutralization IC50 (pseudovirus) [2]: 0.0328 µg/mL; neutralization IC50 [3]: 13.3 µg/mL; neutralization IC50 [4]: 0.01 µg/mL; neutralization IC50 [5]: > 50 µg/mL; neutralization IC50 (pseudovirus) [6]: 0.0071 µg/mL; neutralization IC50 [7]: 0.195 µg/mL; neutralization IC50 [8]: 0.011 µg/mL; neutralization IC50 (pseudovirus) [9]: > 10 µg/mL; IC50 (µg/mL), pseudovirus neutralization [10]: > 50 µg/mL; neutralization IC50 (pseudovirus) [11]: 0.0169 µg/mL; neutralization IC50 (pseudovirus) [12]: 0.0038 µg/mL; neutralization IC50 [13]: 0.012 µg/mL; neutralization IC50 (pseudovirus) [14]: 0.846 µg/mL; neutralization IC50 [15]: > 50 µg/mL; neutralization IC50 [16]: 0.01 µg/mL; neutralization IC50 (pseudovirus) [17]: 2.49 µg/mL; IC50 (µg/mL), pseudovirus neutralization [18]: > 50 µg/mL; neutralization IC50 [19]: 0.009 µg/mL; neutralization IC50 (pseudovirus) [20]: 0.0031 µg/mL; neutralization IC50 [21]: 13.1 µg/mL; IC50 (µg/mL), pseudovirus neutralization [22]: 14.9 µg/mL; IC50 (µg/mL), pseudovirus neutralization [23]: 3.97 µg/mL; neutralization IC50 (pseudovirus) [24]: 0.443 µg/mL; neutralization IC50 [25]: > 50 µg/mL; IC50 (µg/mL), pseudovirus neutralization [26]: 0.181 µg/mL; IC50 (µg/mL), pseudovirus neutralization [27]: 33.5 µg/mL; neutralization IC50 [28]: 42.4 µg/mL; IC50 (µg/mL), pseudovirus neutralization [29]: > 50 µg/mL; neutralization IC50 [30]: 0.547 µg/mL; neutralization IC50 (pseudovirus) [31]: > 10 µg/mL; neutralization IC50 [32]: 0.021 µg/mL; neutralization IC50 (pseudovirus) [33]: > 10 µg/mL; neutralization IC50 (pseudovirus) [34]: 0.0423 µg/mL; IC50 (µg/mL), pseudovirus neutralization [35]: 0.005 µg/mL; neutralization IC50 [36]: 0.606 µg/mL; IC50 (µg/mL), pseudovirus neutralization [37]: 0.182 µg/mL; neutralization IC50 (pseudovirus) [38]: 0.0047 µg/mL; IC50 (µg/mL), pseudovirus neutralization [39]: 0.009 µg/mL; neutralization IC50 (pseudovirus) [40]: > 10 µg/mL; neutralization IC50 [41]: 1 µg/mL; neutralization IC50 (pseudovirus) [42]: 0.492 µg/mL; neutralization IC50 [43]: 0.011 µg/mL; IC50 (µg/mL), pseudovirus neutralization [44]: 0.008 µg/mL; neutralization IC50 [45]: > 50 µg/mL; IC50 (µg/mL), pseudovirus neutralization [46]: > 50 µg/mL; neutralization IC50 [47]: 0.01 µg/mL; neutralization IC50 [48]: 14.9 µg/mL
